# Measurements taken from patent US20200079833A1 (AstraZeneca / MedImmune, published 2020).
# Starred links: 1 amine or outer side, 2 acyl side, 3 side chain; linkers in the order of their positions; H or OH if unused. Non-standard residues stand in square brackets, D forms with d. Groups on a side chain read outwards from the residue. Primed or numbered codes have the meaning given here. No end group written: not given here. *: point of attachment. γGlu = O=C(O)[C@H](CCC(=O)[*:2])N[*:1]; αMeF = C[C@](N)(Cc1ccccc1)C(=O)O; αMeK = C[C@](N)(CCCCN)C(=O)O; Lauroyl = CCCCCCCCCCCC(=O)*; αMeS = C[C@](N)(CO)C(=O)O; PEG2′ = not defined here; Aib = CC(C)(N)C(=O)O
# T1: GLP-1R in the INS1e assay (UniProt P32301 22-463, limits assumed)
# T1 sequence (looked up): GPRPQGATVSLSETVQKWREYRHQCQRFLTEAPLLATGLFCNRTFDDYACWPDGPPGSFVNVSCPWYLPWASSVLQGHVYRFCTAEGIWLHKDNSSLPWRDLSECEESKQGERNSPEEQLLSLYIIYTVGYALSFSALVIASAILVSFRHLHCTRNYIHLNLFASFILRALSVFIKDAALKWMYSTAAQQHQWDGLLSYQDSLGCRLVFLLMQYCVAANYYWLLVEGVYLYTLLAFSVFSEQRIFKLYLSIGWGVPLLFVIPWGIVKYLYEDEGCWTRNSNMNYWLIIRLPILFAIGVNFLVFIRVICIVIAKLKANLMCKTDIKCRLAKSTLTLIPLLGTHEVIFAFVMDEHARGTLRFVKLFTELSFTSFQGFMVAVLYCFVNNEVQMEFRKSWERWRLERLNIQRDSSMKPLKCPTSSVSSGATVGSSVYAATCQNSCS
# T2: glucose-dependent insulinotropic peptide (gastric inhibitory polypeptide) receptor (GIPR), primary cAMP assay … (human, UniProt P48546 22-466)
# T2 sequence (looked up): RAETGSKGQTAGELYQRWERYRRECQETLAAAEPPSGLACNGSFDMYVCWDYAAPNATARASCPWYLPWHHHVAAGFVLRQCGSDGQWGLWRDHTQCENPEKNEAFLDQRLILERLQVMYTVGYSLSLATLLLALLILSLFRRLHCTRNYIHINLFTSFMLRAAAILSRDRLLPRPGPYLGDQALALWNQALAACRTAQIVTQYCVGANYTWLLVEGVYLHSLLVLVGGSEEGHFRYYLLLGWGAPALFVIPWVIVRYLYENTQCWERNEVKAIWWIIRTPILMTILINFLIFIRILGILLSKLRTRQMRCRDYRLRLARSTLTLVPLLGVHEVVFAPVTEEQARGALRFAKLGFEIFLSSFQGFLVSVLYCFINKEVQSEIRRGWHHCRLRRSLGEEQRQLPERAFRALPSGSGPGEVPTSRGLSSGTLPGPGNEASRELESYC
# How the values were obtained:
# Experiment in all cases: cell-based or functional assay
# [1] = target: T1, GLP-1R in the INS1e assay
# [2] = target: T2, glucose-dependent insulinotropic …
# [3] = target: GLP-1 receptor (GLP-1R), primary cAMP assay cell line (human, UniProt P43220 24-463)
# [4] = target: glucagon receptor (GCGR), primary cAMP assay cell line (human, UniProt P47871 26-477)
# Sequence of glucagon receptor (GCGR), primary cAMP assay cell line (P47871 26-477): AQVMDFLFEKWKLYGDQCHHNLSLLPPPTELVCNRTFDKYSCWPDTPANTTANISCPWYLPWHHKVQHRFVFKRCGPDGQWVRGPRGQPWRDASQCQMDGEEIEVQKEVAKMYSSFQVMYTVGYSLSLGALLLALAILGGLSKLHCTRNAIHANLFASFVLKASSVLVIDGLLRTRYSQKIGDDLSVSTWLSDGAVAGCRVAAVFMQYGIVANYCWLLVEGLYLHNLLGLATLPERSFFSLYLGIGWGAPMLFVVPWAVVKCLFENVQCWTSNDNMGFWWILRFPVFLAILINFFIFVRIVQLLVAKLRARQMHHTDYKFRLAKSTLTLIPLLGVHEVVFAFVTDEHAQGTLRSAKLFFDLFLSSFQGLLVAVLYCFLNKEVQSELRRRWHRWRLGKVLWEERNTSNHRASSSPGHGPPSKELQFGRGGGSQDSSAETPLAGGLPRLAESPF
Binder,"cAMP INS1e assay EC50, Mean pM GLP-1R [1] [pM]","cAMP INS1e assay EC50, n1 [1] [nM]","cAMP INS1e assay EC50, n2 [1] [nM]","cAMP Primary assay EC50, n1 [2] [nM]","cAMP Primary assay EC50, n2 [2] [nM]","cAMP Primary assay EC50, Mean pM GLP-1R [3] [pM]","cAMP Primary assay EC50, n1 [3] [pM]","cAMP Primary assay EC50, n2 [3] [pM]","cAMP Primary assay EC50, n1 [4] [nM]","cAMP Primary assay EC50, n2 [4] [nM]"
H[Aib]EGS[αMeF]TSDV[αMeS]SYK([PEG2′-PEG2′-γGlu-Lauroyl])EGEAA[αMeK]K([PEG2′-PEG2′-γGlu-Lauroyl])FIK([PEG2′-PEG2′-γGlu-Lauroyl])FVVEGG-NH2 [SEQ ID NO: 454],5540,4.1,6.99,19.7,19.7,43.7,22.1,65.2,19.7,19.7
H[Aib]EGS[αMeF]TSDV[αMeS]SK([PEG2′-PEG2′-γGlu-Lauroyl])LEGEAA[αMeK]K([PEG2′-PEG2′-γGlu-Lauroyl])FIK([PEG2′-PEG2′-γGlu-Lauroyl])FVVEGG-NH2 [SEQ ID NO: 450],6810,6.38,7.24,19.9,19.9,49,28,70,19.9,19.9
H[Aib]EGS[αMeF]TSDV[αMeS]SYK([PEG2′-PEG2′-γGlu-Lauroyl])EGEK([PEG2′-PEG2′-γGlu-Lauroyl])A[αMeK]EFIAK([PEG2′-PEG2′-γGlu-Lauroyl])VVEGG-NH2 [SEQ ID NO: 469],4900,6.9,2.89,19.8,19.8,45.4,41.8,49,19.8,19.8
H[Aib]EGS[αMeF]TSDK([PEG2′-PEG2′-γGlu-Lauroyl])SSYLEK([PEG2′-PEG2′-γGlu-Lauroyl])EAA[αMeK]EFIAK([PEG2′-PEG2′-γGlu-Lauroyl])VVEGG-NH2 [SEQ ID NO: 455],4910,6.74,3.08,19.8,19.8,87.4,54.8,120,19.8,19.8
H[Aib]EGS[αMeF]TSDV[αMeS]SYK([PEG2′-PEG2′-γGlu-Lauroyl])EGEAA[αMeK]K([PEG2′-PEG2′-γGlu-Lauroyl])FIAK([PEG2′-PEG2′-γGlu-Lauroyl])VVEGG-NH2 [SEQ ID NO: 470],3660,3.84,3.48,20,20,31.3,26,36.5,20,20
H[Aib]EGS[αMeF]TSDV[αMeS]SK([PEG2′-PEG2′-γGlu-Lauroyl])LEGEAA[αMeK]K([PEG2′-PEG2′-γGlu-Lauroyl])FIAK([PEG2′-PEG2′-γGlu-Lauroyl])VVEGG-NH2 [SEQ ID NO: 466],3200,3.86,2.55,20.2,20.2,22.4,17.2,27.5,20.2,20.2
H[Aib]EGS[αMeF]TSDV[αMeS]SYK([PEG2′-PEG2′-γGlu-Lauroyl])EK([PEG2′-PEG2′-γGlu-Lauroyl])EAA[αMeK]EFIAK([PEG2′-PEG2′-γGlu-Lauroyl])VVEGG-NH2 [SEQ ID NO: 467],8920,9.92,7.91,19.8,19.8,55.4,49.3,61.5,19.8,19.8
H[Aib]EGS[αMeF]TSDVSK([PEG2′-PEG2′-γGlu-Lauroyl])YLEGEAA[αMeK]K([PEG2′-PEG2′-γGlu-Lauroyl])FIAK([PEG2′-PEG2′-γGlu-Lauroyl])VVEGG-NH2 [SEQ ID NO: 462],4560,5.4,3.73,20,20,47,37.6,56.4,20,20
H[Aib]EGS[αMeF]TSDV[αMeS]SK([PEG2′-PEG2′-γGlu-Lauroyl])LEGK([PEG2′-PEG2′-γGlu-Lauroyl])AA[αMeK]EFIAFK([PEG2′-PEG2′-γGlu-Lauroyl])VEGG-NH2 [SEQ ID NO: 480],6530,9.37,3.69,20,20,57.5,56,58.9,20,20
H[Aib]EGS[αMeF]TSDK([PEG2′-PEG2′-γGlu-Lauroyl])SSYLEGEAA[αMeK]K([PEG2′-PEG2′-γGlu-Lauroyl])FIAK([PEG2′-PEG2′-γGlu-Lauroyl])VVEGG-NH2 [SEQ ID NO: 458],3370,3.07,3.67,20,20,41.4,36.3,46.4,20,20
H[Aib]EGS[αMeF]TSDV[αMeS]SK([PEG2′-PEG2′-γGlu-Lauroyl])LEGK([PEG2′-PEG2′-γGlu-Lauroyl])AA[αMeK]EFIAK([PEG2′-PEG2′-γGlu-Lauroyl])VVEGG-NH2 [SEQ ID NO: 464],4020,4.46,3.57,20.2,20.2,30.3,25.4,35.1,20.2,20.2
